The experiment deals with T1, amyloid-β oligomers (UniProt P05067 672-713).
T1 construct: also called AβO; Aβ oligomers
The experiment is described as follows: co-sedimentation. The following applies: both partners purified.

B1: huPrP(23−144) (domain or fragment)
chain: KKRPKPGGWNTGGSRYPGQGSPGGNRYPPQGGGGWGQPHGGGWGQPHGGGWGQPHGGGWGQPHGGGWGQGGGTHSQWNKPSKPKTNMKHMAGAAAAGAVVGGLGGYMLGSAMSRPIIHFGSD
B1: the binding result was “binds”.

B2: huPrP(23−111) (domain or fragment)
chain: KKRPKPGGWNTGGSRYPGQGSPGGNRYPPQGGGGWGQPHGGGWGQPHGGGWGQPHGGGWGQPHGGGWGQGGGTHSQWNKPSKPKTNMKH
On to B2, for which the binding result is on record as “binds”.

B3: full-length huPrP(23−230) (natural protein)
chain: not shown
On to B3, for which the binding result is “binds”.

The values above are taken from PMC7347944 (Communications Biology, 2020).
